Experimental data taken from the supplement of paper PMC10567573.

B1: INTS3 (parent)
chain: FSDDEEDLNSKGKKREFRFHPIKE

Variants of: B1
Assay: protein stability index of a GFP-peptide fusion (GPS, HEK-293T) (PSI 1-6); higher = more stable
Conditions: c terminus: a fixed tail appended
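Note: lentivirally expressed fusions sorted by FACS into six bins by GFP to DsRed ratio, PSI derived from sequencing read proportions per bin multiplied by bin number.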

Protein stability index: each site, then its substitutions
R18: I 4.55, L 4.57, T 4.64, M 4.9, Q 5.2, D 4.94, E 5.1, P 4.76, W 3.35, V 4.56, C 4.57, G 4.77, F 3.27, N 5.14, K 4.63, H 4.85, S 4.12, Y 4.36, A 4.33
K13: F 2.44, S 3.06, Y 3.02, C 2.89, Q 3.29, I 2.31, G 3.42, E 3.6, A 3.41, T 3.11, D 3.4, H 2.31, M 3.23, P 2.85, L 3.54, N 3.2, R 2.99, V 2.11, W 2.29
S10: C 3.08, D 3.64, Y 2.59, H 2.64, P 2.63, W 3.56, T 2.87, M 3.56, R 2.41, I 2.17, F 2.45, E 2.99, L 2.57, N 3.37, K 2.38, G 2.9, A 2.58, V 2.75, Q 3.43
N9: P 2.61, L 2.99, D 3.79, E 3.6, A 3.15, H 2.77, Q 2.68, K 2.21, S 2.98, C 2.67, T 3.36, R 2.76, I 2.06, V 3.83, G 2.82, F 2.31, W 2.12, Y 2.29, M 2.66
F19: H 5.29, C 4.98, N 5.26, L 4.67, G 4.98, E 5.59, P 5.07, M 4.86, I 4.68, A 5.07, D 5.53, K 5.4
D3: W 2.45, K 2.59, M 2.55, R 2.19, I 2.09, S 2.55, F 2.38, E 2.61, T 2.9, V 2.61, Q 2.58, G 2.85, N 2.57, A 2.19, Y 2.32, H 2.69, C 2.42, L 2.23, P 2.29
E16: W 2.45, S 2.93, C 2.37, A 2.25, Y 2.61, T 2.67, K 3.69, L 3.46, Q 2.61, D 4, P 2.17, M 2.74, V 2.89, G 2.41, F 3.05, I 2.58, H 3.08, N 2.88, R 2.23
E6: H 2.29, Y 2.24, L 2.69, R 2.07, Q 2.29, T 3.08, M 2.18, S 2.15, D 2.8, P 2.36, V 2.27, G 2.7, N 2.1, W 2.32, F 2.13, K 2.61, C 2.62, A 2.6, I 2.27
F17: W 2.01, S 5.44, A 5.13, K 5.12, C 5.31, V 4.85, D 4.43, Y 4.35, N 5.01, M 4.79, I 4.9, E 5.03, L 4.76, T 5.04, Q 5.18, R 4.97, P 5.06, G 5.18, H 5.01
E5: W 1.88, L 2.55, H 2.18, A 2.81, P 2.48, Y 2.29, I 2.81, F 2.41, R 2, S 2.1, Q 2.3, G 2.44, C 2.49, K 2.17, D 2.68, N 2.39, T 2.68, V 2.9, M 2.61
K11: C 2.99, Y 3.29, S 3.22, W 1.9, M 2.79, G 3.02, I 3.48, A 3.62, T 3.35, R 3.2, Q 3.62, N 3.44, H 3.13, E 3.38, D 3.56, P 3.38, L 2.73, V 2.89, F 3.24
L8: Y 3, I 2.83, G 3.29, N 2.99, E 3.4, T 3.23, Q 3.44, R 2.94, A 3.35, H 2.73, F 2.75, V 2.99, C 2.99, K 2.78, S 3.37, W 2.84, M 2.78, P 3.4, D 3.26
K14: C 2.66, T 3.46, V 2.03, H 2.86, I 1.88, W 1.53, G 2.96, Q 3.1, P 3.46, E 3.44, Y 2.48, F 2.13, D 3.73, M 1.41, L 2.11, N 3.27, R 2.88, S 3.79, A 3.01
R15: Y 2.56, V 3.14, G 3.2, T 3.38, A 3.8, S 3.6, I 3.47, M 2.56, H 2.26, N 3.49, F 2.81, K 3.89, E 4.63, D 3.94, P 2.6, W 2.42, C 3.31, L 2.53, Q 3.62
S2: R 2.14, W 2.33, P 2.53, F 2.31, V 2.2, M 2.6, G 3.22, Y 2.43, K 3.23, N 2.92, D 3.34, E 3.39, Q 2.5, I 2.39, C 2.8, H 2.3, T 2.88, L 2.47
G12: L 2.29, F 1.91, A 2.67, S 2.65, P 2.98, Y 2.4, V 2.1, W 2.11, K 1.98, M 2.58, D 2.92, H 2.58, I 2.14, Q 3.2, T 2.44, E 3.02, N 2.83, R 2.14, C 2.13
D4: Q 2.9, C 2.4, E 3.05, P 2.53, I 2.38, W 2.4, L 2.43, V 2.23, H 2.95, R 1.85, S 2.75, T 2.56, Y 2.51, F 2.19, A 2.72, N 2.82, M 2.4, K 2.02, G 2.52
D7: K 2.04, Y 2.23, H 2.52, M 2.59, P 2.18, Q 2.15, V 2.7, E 3.14, L 2.56, N 2.29, A 2.59, R 1.92, F 2.47, C 1.99, I 2.12, T 2.58, G 2.13, S 2.66, W 2.23
